From patent US20240382610A1 (TALLAC THERAPEUTICS, published 2024)

T1: Human nectin-4 ECD-6His (TNT-175) (human, UniProt Q96NY8 32-349)
T1 construct: the entry holds the extracellular domain with the C-terminal 6His tag
T1 sequence: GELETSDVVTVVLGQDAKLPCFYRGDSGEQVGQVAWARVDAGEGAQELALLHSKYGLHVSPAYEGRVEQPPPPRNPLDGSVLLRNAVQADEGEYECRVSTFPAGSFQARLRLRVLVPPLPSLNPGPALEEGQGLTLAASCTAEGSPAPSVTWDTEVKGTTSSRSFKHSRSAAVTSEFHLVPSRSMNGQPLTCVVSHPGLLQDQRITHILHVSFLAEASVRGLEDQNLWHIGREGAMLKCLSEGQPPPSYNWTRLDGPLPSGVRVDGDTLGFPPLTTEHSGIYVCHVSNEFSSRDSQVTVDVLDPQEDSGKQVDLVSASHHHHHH

T2: Cyno nectin-4 ECD-6His (TNT-255) (cynomolgus, UniProt Q96NY8 32-349 (human entry))
T2 construct: entry includes the 6His tag
T2 chain: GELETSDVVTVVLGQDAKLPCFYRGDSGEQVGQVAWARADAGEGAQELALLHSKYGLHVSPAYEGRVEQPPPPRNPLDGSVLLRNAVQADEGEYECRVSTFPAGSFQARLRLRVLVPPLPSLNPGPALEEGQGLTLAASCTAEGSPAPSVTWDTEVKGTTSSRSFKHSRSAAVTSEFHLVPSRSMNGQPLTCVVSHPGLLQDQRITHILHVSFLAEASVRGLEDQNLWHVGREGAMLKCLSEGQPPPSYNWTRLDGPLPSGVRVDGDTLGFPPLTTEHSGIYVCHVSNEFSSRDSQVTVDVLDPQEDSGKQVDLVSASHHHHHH

T3: Mouse nectin-4 ECD-6His (TNT-250) (mouse, UniProt Q8R007 31-347)
T3 construct: entry includes the 6His tag; also called mouse nectin-4-LCD
T3 sequence: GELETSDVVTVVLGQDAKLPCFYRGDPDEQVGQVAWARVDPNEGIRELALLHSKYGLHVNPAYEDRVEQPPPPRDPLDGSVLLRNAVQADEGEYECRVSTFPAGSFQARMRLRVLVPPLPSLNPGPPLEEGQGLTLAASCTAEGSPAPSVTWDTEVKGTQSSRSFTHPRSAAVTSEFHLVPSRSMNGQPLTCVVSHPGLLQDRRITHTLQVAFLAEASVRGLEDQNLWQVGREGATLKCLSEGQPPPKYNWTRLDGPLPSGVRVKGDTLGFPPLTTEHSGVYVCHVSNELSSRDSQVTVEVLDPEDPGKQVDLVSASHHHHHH

T4: Human nectin-4-IgV-6His (TNT-252) (human, UniProt Q96NY8 32-147)
T4 construct: entry includes the 6His tag
T4 sequence: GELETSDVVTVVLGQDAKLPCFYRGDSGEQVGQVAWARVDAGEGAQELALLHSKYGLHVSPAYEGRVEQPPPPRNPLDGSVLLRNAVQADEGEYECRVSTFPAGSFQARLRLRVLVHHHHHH


How the values were obtained:
Test in all cases: SPR Biacore 8K, mAb on protein A
[1] = biological target: T1, Human nectin-4 ECD-6His (TNT-175)
Protocol: (§1) The running buffer was 10 mM HEPES, pH 7.4, 150 mM NaCl, 3 mM EDTA, 0.05% (v/v) Surfactant P20 (HBS-EP+). […] The nectin-4 analytes were injected in either single-cycle kinetics or multi-cycle kinetics mode at nominal starting concentrations of 300 nM or 900 nM with 3-fold serial dilutions. Association times were monitored for 120 s, and dissociation times were monitored 1800 s at 30 μL/min flow rate. The surfaces were regenerated with 10 mM glycine at pH1.7 or 75 mM phosphoric acid at pH1.6 for two pulses of 15 s at 30 μL/min flow rate.
(§2) The data were processed and analyzed with Biacore 8K Evaluation Software Version 3.0.12.15655 (Cytiva, Global Life Sciences Solutions USA LLC, Marlborough, MA). […] The responses from the nearest buffer blank injection were then subtracted from the reference subtracted data (2-1) to yield double-referenced data. These double-reference data were fit to a simple 1:1 Langmuir binding model with mass transport to determine the apparent association (ka) and dissociation rate constants (kd). The apparent equilibrium dissociation constant or affinity constant was then calculated based on their ratio as (KD=kd/ka).

[2] = biological target: T2, Cyno nectin-4 ECD-6His (TNT-255)
Protocol: as §1, §2

[3] = biological target: T3, Mouse nectin-4 ECD-6His (TNT-250)
Protocol: as §1, §2

[4] = biological target: T4, Human nectin-4-IgV-6His (TNT-252)
Protocol: as §1, §2

| Kd [1] [nM] | Kd [2] [nM] | Kd [4] [nM] | Kd [3] [nM] | Binder | binding result [3] | binding result [4] |
| --- | --- | --- | --- | --- | --- | --- |
| 9 | 8.67 |  |  | TNT-323 (antibody, V domains shown, human IgG1) VH: QVQLQESGPGLVKPSETLSLTCTVSGGSISSYFWNWIRQPPGKGLEWIGYLYYIGTTNYNPSLKSRVTISVDTSKNQFSLKLNSVTAADTAVYYCARSGNYYNDAFDIWGQGTMVTVSS VL: not shown | no binding (tested: up to 300 or 900 nM analyte) | no binding (tested: up to 300 or 900 nM analyte) |
| 18.4 | 35.9 | 9.91 |  | TNT-320 (antibody, V domains shown, human IgG1) VH: QVQLVQSGAEVKKPGASVKVSCKASGYTFTVYYIHWVRQAPGQGLEWMGWISPNSGGTNYAQKFQGRVTMTRDTSISTAYMELTRLRSDDTAIFYCARQTVVTPNWGFDYWGQGTLVTVSS VL: not shown | no binding (tested: up to 300 or 900 nM analyte) |  |
| 15.7 | 18.3 |  |  | TNT-317 (antibody, V domains shown, human IgG1) VH: QVQLQESGPGLVKPSETLSLTCTVSGGSISSYFWSWIRQPPGKGLEWIGYIYYSGNTNYNPSLKSRVTISVDMSKNQFSLRLSSVTAADTAVYYCARDFHHYDGSAYRWYFDLWGRGTLVTVSS VL: QSVLTQPPSVSAAPGQKVTISCSGSSSNIGNNYVSWYQQFPGTAPKLLIYDNNKRPSGIPDRFSGSKSGTSATLGITGLQTGDEADYYCGTWDSSLNAGWVFGGGTKLTVLG | no binding (tested: up to 300 or 900 nM analyte) | no binding (tested: up to 300 or 900 nM analyte) |
| 87.4 | 32.8 |  |  | TNT-331 (antibody, V domains shown, human IgG1) VH: QVHLQESGPGLVKPSETLSLTCTVSGGSIRSYYWSWIRQPAGKGLEWIGRIYTSGSTNYNPSLKSRVTMSVDTSKNRLSLKLSSVTAADTAVYYCAKENWGPSFDYWGQGTLVTVSS VL: QSVLTQPPSVSAAPGQKVTISCSGSSSNIGNNYVSWYQQLPGTAPKLLIYDNNKRPSGIPDRFSGSKSGTSATLGITGLQTGDEADYYCGTWDTSLSSGWLFGGGTKLTVLG | no binding (tested: up to 300 or 900 nM analyte) | no binding (tested: up to 300 or 900 nM analyte) |
| 57.9 | 51.5 |  |  | TNT-322 (antibody, V domains shown, human IgG1) VH: QVQLQESGPGLVKPSATLSLTCTVSGGSISSYYWNWIRQPPGKGLEWIGYIYYSGNTNYNPSLKSRVTISVDMSKNQFSLKLNSVTAADTAVYYCARSESYGYWFFYLWGRGTLVTVSS VL: QSVLTQPPSVSAAPGQKVTISCSGSSSNIGNNYVSWYQQFPGTAPKLLIYDNNKRPSGIPDRFSGSKSGTSATLGITGLQTGDEADYYCGTWDSSLSAGVVFGGGTKLTVLG | no binding (tested: up to 300 or 900 nM analyte) | no binding (tested: up to 300 or 900 nM analyte) |
| 1.59 | 1.78 |  |  | TNT-328 (antibody, V domains shown, human IgG1) VH: QVQLQESGPGLVKPSETLSLTCTVSGGSMSSYFWSWIRQPPERGLEWVGYMYYSGNTNYNPSLKSRVTTSIDTSKNQFSLKLTSVTAADTAVYYCARSGNFYWNFDLWGRGTLVTVSS VL: QSVLTQPPSVSGAPGQRVTISCTGSSSNIGAGYNVHWYQQLPGTAPKVLISGNSNRPSGVPDRFSGSKSGTSASLAITGLQAEDEADYYCQSYDSSLSGSAVFGGGTKLTVLG | no binding (tested: up to 300 or 900 nM analyte) | no binding (tested: up to 300 or 900 nM analyte) |
| 53.9 | 727 | 75.3 | 820 | TNT-205 (antibody, human IgG1, kappa) heavy: not shown light: DIVMTQSPSSLSASVGDRVTITCRASQGISNYLAWYQQKPGKVPKLLIYAASTLQSGVPSRFSGSGSGTDFTLTISSLQPEDVATYYCQKYNSAPYTFGQGTKVEIKRTVAAPSVFIFPPSDEQLKSGTASVVCLLNNFYPREAKVQWKVDNALQSGNSQESVTEQDSKDSTYSLSSTLTLSKADYEKHKVYACEVTHQGLSSPVTKSFNRGEC |  |  |
| 24.3 | 48.9 | 24.3 | 68.4 | TNT-211 (antibody, human IgG1, kappa) heavy: not shown light: DIVMTQSPSSLSASVGDRVTITCRASQGISNYLAWYQQKPGKVPKLLIYAASTLQSGVPSRFSGSGSGTEFTLAISSLQPEDLATYYCQQLNSHPITFGQGTRLEIKRTVAAPSVFIFPPSDEQLKSGTASVVCLLNNFYPREAKVQWKVDNALQSGNSQESVTEQDSKDSTYSLSSTLTLSKADYEKHKVYACEVTHQGLSSPVTKSFNRGEC |  |  |
| 260 | 211 |  |  | TNT-318 (antibody, V domains shown, human IgG1) VH: QVQLQESGPGLVKPSETLSLTCTVSGGSISSNYWTWIRQSAGKGLEWIGRIHISESTNYNPSLKSRVTMSVDTSKNQFSLKLSSVTAADTAVYFCAREGEWKVLGAFDIWGQGTMVTVSS VL: QTVLTQPSSLSASPGASASLTCTLRSGINVGSYRIYWYQQKPGSPPQFLLRYKSDSDKQQGSGVPSRFSGSKDDSANAGILLISGLQSEDEADYYCMIWHSSASVFGTGTKVTVLG | no binding (tested: up to 300 or 900 nM analyte) | no binding (tested: up to 300 or 900 nM analyte) |
| 14 | 56 | 11.6 |  | TNT-321 (antibody, V domains shown, human IgG1) VH: QVQLQESGPGLVKPSETLSLTCTVSGGSISSYYWSWIRQPPGKGLEWIGYIYYSGNVNYNPSLKSRVTISVDASKNQFSLKLTSVTAADTAVYYCAIGGVGAQWDAFDIWGQGTMVTVSS VL: DIQMTQSPSAMSASVGDRVTITCRASQGISNYLAWFQQKPGKVPKRLIYAASSLQSGVPSRFSGSGSGTEFTLTISSLQPEDFATYYCLQHSFYPLTFGPGTKVDIKR | no binding (tested: up to 300 or 900 nM analyte) |  |
| 3.63 | 2.85 | 1.64 |  | TNT-327 (antibody, V domains shown, human IgG1) VH: QVQLQESGPGLVKPSETLSLTCTVSGGSISDYYWIWIRQPAGKGLEWIGRIYTTGGAKYNPSLKSRVTMSIDTSKNNFSLKLSSVTAADTAVYFCARDRNWEWNFDLWGRGTLVTVSS VL: QSALTQPASVSGSPGQSITISCTGTTSDIGSYNLVSWYQQHPGKAPKLMIYEVSMSPSGVSDRFSGSKSGSTASLTISGLQAEDEADYYCSSYAGSSTVVFGGGTRLTVLG | no binding (tested: up to 300 or 900 nM analyte) |  |
| 64.5 | 24.4 | 30.7 |  | TNT-324 (antibody, V domains shown, human IgG1) VH: not shown VL: QTVVTQEPSLTVSPGGTVTLTCASSTGAVTSGYYPNWFQQKPGQAPRALIYSTSNKHSWTPARFSGSLLGGKAALTLSGVQPEDEAEYYCLLYYDGAHLFGGGTKLTVLG | no binding (tested: up to 300 or 900 nM analyte) |  |
| 16.4 | 13.7 | 7.3 |  | TNT-330 (antibody, V domains shown, human IgG1) VH: EVQLVESGGGLVKPGGSLRLSCAVSGFTFSSYNMNWVRQAPGKGLEWVSSISISSSYIYYADSVKGRFTISRDNAKNSLYLQMNSLRAEDTAVYYCARDRGLDDAFDIWGQGTVVTVSS VL: DIVMTQTPLSLPVTPGEPASISCRSSQSLLDSDDGNTYLDWYLQKPGQSPQLLIYTLSYRASGVPDRFSGSGSGTDFTLKVSRVEAEDVGVYYCMQRIEFPYTFGQGTKLEIKR | no binding (tested: up to 300 or 900 nM analyte) |  |
